The values below come from patent publication US20240200081A1, “NUCLEIC ACID MOLECULE CONJUGATE HAVING PROLONGED IN VIVO HALF-LIFE” (APTACURE THERAPEUTICS LIMITED, published 2024).

Series [1] has as its target sclerostin (Homo sapiens, UniProt Q9BQB4 SEQ:1-190). Put plainly: ELONA; PBS, 1 mM MgCl2, RT; p158 prints 3' end as CT GCCC, APC001 as U G C C. To be noted: tags: His6 (SELEX protein); recombinant human sclerostin. The procedure: An Enzyme-linked OligoNucleotide Assay (ELONA) was performed to determine the binding affinity of the aptamer candidates to sclerostin (Drolet, Moon-McDermott et al. 1996). Similarly, an Enzyme-linked ImmunoSorbent Assay (ELISA) was performed to determine the binding affinity of anti-sclerostin antibody to human sclerostin (Engvall and Perlmann 1971). 160 ng purified recombinant human sclerostin was coated to 96-well microtiter plate in 100 μl PBS by incubating at 4° C. overnight. The plate was then blocked with blocking buffer (PBS, 0.1% Tween 20 and 1% BSA) for 1 h at room temperature and washed with SELEX B&W buffer (PBS, 1mM MgCl2, 0.1% Tween 20 and 0.1% BSA) for 4 times. The aptamer candidates were denatured at 95° C. for 10 min and rapidly cooled on ice for 10 min before use. Appropriate concentrations of biotinylated aptamers/antibody were added into each well, then added SELEX B&W buffer to 100 μl and incubated for 45 min at room temperature with continuous gentle shaking. After binding, the plate was washed with SELEX B&W buffer for 4 times to remove non-specific and very weak binding, followed by washing with PBST+0.1% BSA for 4 times. […] Absorbance at 450 nm was measured with microplate reader (Stoltenburg, Krafcikova et al. 2016). Data was analyzed with Origin software (OriginLab, Northampton, MA). […]

Series [2] has as its target sclerostin (UniProt Q9BQB4 Q9BQB4:24-213). Put plainly: cell_activity; inhibition potency, TOP-Wnt luciferase reporter. The settings on record: tags: expressed from transfected sclerostin plasmid in MC3T3-E1 cells. As for the experimental part: To study the inhibition potency of aptamers against sclerostin's antagonistic effect on Wnt signaling, a TOP-Wnt induced luciferase reporter assay was used in osteoblast MC3T3-E1 cells (van Bezooijen, Svensson et al. 2007, Shum, Chan et al. 2011).
MC3T3-E1 cells were seeded in 24-well plates and cells were transfected with corresponding reporter plasmid (100 ng), Wnt3a plasmid (800 ng) and sclerostin plasmid (800 ng) as necessary using FuGENE HD transfection reagent (Promega) in the following day. 10 hours after transfection, culture medium was changed to fresh medium and cells were treated with aptamers/antibody. 24 hours after treatment, each well of cells was lysed with 100 μl passive lysis buffer and 20 μl was taken for analysis. The Luciferase Assay Reagent II and Stop & Glo Reagent were prepared and added automatically by SpectraMax i3x Multi-Mode Detection Platform (Molecular Device) according to the manufacturer's protocol (Promega) and data was analyzed accordingly (Grentzmann, Ingram et al. 1998, McNabb, Reed et al. 2005).
For orientation: Reporter assays use an easily measured gene product as a stand-in for the process of interest.

sclerostin (Homo sapiens, UniProt Q9BQB4 SEQ:1-190), sequence (Q9BQB4 24-213): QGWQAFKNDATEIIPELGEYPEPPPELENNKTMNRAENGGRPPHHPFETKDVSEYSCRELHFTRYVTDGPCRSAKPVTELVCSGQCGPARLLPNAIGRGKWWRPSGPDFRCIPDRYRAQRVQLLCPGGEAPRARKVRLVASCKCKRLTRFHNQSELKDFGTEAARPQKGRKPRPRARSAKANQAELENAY
sclerostin (UniProt Q9BQB4 Q9BQB4:24-213), sequence (Q9BQB4 24-213, one chain of several): as the sequence (Q9BQB4 24-213) above

For CGGGGTGTGGGTTCGTCGTTAGCTTGATTTGGCAGCTGCC (ssDNA, 2'-OMe on first 4 (CGGG) and last 4 nucleotides; 3' idT) [modified aptscl 56], the Kd with sclerostin [1] worked out at 6.55 nM. For the same molecule, the EC50 with sclerostin [2] was determined as 14 µg/mL.

The term Kd denotes the concentration at which binding is half-saturated. Broadly, the EC50 is the concentration giving half of the maximal effect. Low readings indicate a more potent agent, high ones a less potent agent.
